Test results as given in US20160280792A1 (Kyowa Kirin, published 2016).

T1: soluble form of human IL-3Rα protein (extracellular region with C-terminal FLAG tag) (human, UniProt P26951 19-305)
T1 construct: Made in CHOras1 cells, purified on anti-FLAG gel; also called soluble form of IL-3Rα protein; soluble form of human IL-3Rα extracellular region
T1 sequence: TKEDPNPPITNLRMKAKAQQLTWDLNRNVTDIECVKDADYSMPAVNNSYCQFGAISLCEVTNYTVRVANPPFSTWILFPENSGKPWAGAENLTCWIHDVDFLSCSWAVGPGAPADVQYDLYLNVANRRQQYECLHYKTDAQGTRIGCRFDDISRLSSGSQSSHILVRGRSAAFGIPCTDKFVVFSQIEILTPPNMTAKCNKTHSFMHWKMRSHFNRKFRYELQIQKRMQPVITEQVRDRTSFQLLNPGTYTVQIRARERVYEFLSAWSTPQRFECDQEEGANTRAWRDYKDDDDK

T2: IL-3Rα/GM-CSFRα chimeric protein, B domain of IL-3Rα replaced by that of GM-CSFRα, on HEK293T cells (human, UniProt P15509 115-213)
T2 construct: domain: B domain; The KpnI sites (GGTACC) at both junctions each encode an extra Gly-Thr; also called B domain substitution
T2 sequence: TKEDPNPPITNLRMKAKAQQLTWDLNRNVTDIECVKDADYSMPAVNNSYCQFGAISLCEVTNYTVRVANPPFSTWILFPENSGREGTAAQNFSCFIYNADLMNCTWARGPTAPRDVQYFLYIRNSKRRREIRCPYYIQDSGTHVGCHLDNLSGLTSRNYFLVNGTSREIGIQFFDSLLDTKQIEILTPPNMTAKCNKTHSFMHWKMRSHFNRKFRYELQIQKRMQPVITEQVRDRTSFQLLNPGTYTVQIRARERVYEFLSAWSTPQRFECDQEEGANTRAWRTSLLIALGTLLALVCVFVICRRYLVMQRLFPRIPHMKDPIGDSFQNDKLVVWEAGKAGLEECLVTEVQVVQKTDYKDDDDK

T3: IL-3Rα/GM-CSFRα chimeric protein, region 6 (182-ILVRGRS-188) of IL-3Rα replaced by GM-CSFRα sequence, on … (human, UniProt P26951 19-378)
T3 construct: also called Region 6 (B)
T3 chain: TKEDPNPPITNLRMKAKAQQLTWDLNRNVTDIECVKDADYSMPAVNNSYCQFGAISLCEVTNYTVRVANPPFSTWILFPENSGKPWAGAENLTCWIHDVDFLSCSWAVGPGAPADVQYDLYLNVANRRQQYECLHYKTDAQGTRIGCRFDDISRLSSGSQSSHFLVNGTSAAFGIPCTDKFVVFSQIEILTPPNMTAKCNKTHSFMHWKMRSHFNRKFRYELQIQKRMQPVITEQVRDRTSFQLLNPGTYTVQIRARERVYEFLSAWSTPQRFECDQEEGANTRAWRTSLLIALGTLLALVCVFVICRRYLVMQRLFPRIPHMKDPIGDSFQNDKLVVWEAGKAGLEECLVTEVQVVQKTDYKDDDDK

T4: IL-3Rα/GM-CSFRα chimeric protein, region 7 (192-GIPCTDK-198) of IL-3Rα replaced by GM-CSFRα sequence, on … (human, UniProt P26951 19-378)
T4 construct: also called Region 7 (B)
T4 chain: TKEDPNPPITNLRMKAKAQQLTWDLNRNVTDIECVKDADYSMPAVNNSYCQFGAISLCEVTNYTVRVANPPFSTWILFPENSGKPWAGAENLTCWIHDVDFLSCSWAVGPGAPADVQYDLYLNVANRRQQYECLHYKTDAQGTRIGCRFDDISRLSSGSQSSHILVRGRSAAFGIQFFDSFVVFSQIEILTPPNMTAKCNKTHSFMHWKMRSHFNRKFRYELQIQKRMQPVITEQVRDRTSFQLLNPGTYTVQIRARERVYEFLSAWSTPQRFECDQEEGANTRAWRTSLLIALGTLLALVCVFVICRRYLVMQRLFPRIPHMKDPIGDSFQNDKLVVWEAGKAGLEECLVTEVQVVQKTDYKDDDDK

T5: IL-3Rα/GM-CSFRα chimeric protein, C domain of IL-3Rα replaced by that of GM-CSFRα, on HEK293T cells (human, UniProt P15509 214-327)
T5 construct: domain: C domain; KpnI sites at both junctions each encode an extra Gly-Thr; also called C domain substitution
T5 sequence: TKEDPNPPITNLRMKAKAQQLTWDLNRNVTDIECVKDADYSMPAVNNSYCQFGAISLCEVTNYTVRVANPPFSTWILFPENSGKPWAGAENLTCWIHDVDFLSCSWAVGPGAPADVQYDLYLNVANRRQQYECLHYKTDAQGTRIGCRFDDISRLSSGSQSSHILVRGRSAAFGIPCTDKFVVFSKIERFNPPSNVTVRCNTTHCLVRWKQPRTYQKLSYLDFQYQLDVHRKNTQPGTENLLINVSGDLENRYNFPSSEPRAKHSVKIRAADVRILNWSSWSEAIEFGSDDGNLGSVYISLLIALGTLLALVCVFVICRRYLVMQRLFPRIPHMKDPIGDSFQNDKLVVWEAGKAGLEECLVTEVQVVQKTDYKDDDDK


What was measured:
[1] = molecular target: T1, soluble form of human IL-3Rα protein …; test: SPR (Biacore 2000): antibody captured on anti-human antibody CM5 chip, soluble IL-3Rα as analyte, 1:1 Langmuir fit
Method: Specifically, CM5 (research grade) was used for a sensor tip (each GE). Firstly, the CM5 tip was activated by applying an equivalent mixture of 400 mM EDC (N-ethyl-N′-(3-dimethylaminopropyl)carbodiimidehydrochloride) and 100 mM NHS (N-hydroxysuccinimide) to the CM5 tip. Next, an antibody to the human antibody attached to the Human Antibody Capture Kit (GE) (hereinafter, referred to as anti-human antibody antibody) was diluted with the solution attached to the kit and applied thereto, thereby immobilizing the required amount of the anti-human antibody antibody to the CM5 tip. Regarding the mouse antibody to be used as a control, an antibody to the mouse antibody attached to the Mouse Antibody Capture Kit (GE) (hereinafter, referred to as anti-mouse antibody antibody) was diluted with the solution attached to the kit and applied thereto, thereby immobilizing a necessary amount thereof to the CM5 tip. Next, the surface of the activated tip was blocked and inactivated by applying 1 M of ethanolamine dihydrochloride thereto. By the above steps until this, preparation of a CM5 sensor tip which can measure the dissociation constant KD was completed.
Next, each of anti-IL-3Rα antibodies, was diluted to give a concentration of 5 μg/ml with HBS-FP buffer (GE) one kind per one flow cell and applied, thereby allowing it to bind to the immobilized anti-human antibody antibody or anti-mouse antibody antibody. Next, the soluble form of IL-3Rα protein was applied thereto. In order to dissociate the bound anti-IL-3Rα antibody and soluble form of IL-3Rα protein, 3 M MgCl₂ attached to Human Antibody Capture Kit or pH 1.7 of Glycine-HCl attached to Mouse Antibody Capture Kit was applied in the amount attached to the kit. The steps until this were regarded as one step. By repeating the same steps using two or more concentrations of the soluble form of IL-3Rα protein, data for calculating association and dissociation constants (sensorgram) were obtained.
In the analysis, Biaevaluation software (GE) was used and Biaevaluation Software Handbook was referred. Specifically, by carrying out simultaneous analysis of kinetics analysis, employing basically the 1:1 Langmuir binding reaction model and fitting, association rate constant (Ka) and dissociation rate constant (Kd) were calculated, and the value of dissociation constant KD was calculated by the calculation of Kd/Ka.

[2] = molecular target: T2, IL-3Rα/GM-CSFRα chimeric protein, B …; test: flow cytometry, labelled antibody at 1 µg/ml, HEK293T cells expressing the construct
Method: (§1) HEK293T cell (ATCC CRL 1268) was used for the preparation of the IL-3Rα/GM-CSFRα chimeric protein expression cell. Using 293Fectin (Invitrogen), the plasmid DNA obtained in the above was introduced as an expression vector into the HEK293T. The HEK293T to which the expression vector was introduced was cultured using a shaker under conditions of 5% CO₂ and 37° C. after 2 days of the introduction, the […] was used for in the flow cytometry analysis.
(§2) From 100,000 to 1,000,000 cells of the chimeric protein expression cell were allowed to react for 30 minutes on ice with at a concentration of 1 μg/ml with an AlexaFlour488-labeled human antibody or a commercially available FITC-labeled anti-IL-3Rα mouse antibody (7G3 or 9F5: both from BD Biosciences, 6H6: Acris Antibodies, AC145: Milteny Biotech, 107D2.08: Dendritics). A staining medium (Dulbecco's PBS supplemented with 2% fetal bovine serum, 2 mM EDTA and 0.05% NaN₃) was used for the dilution of antibodies and cells. Next, the cells reacted with antibodies were washed three times with the staining medium and whether the labeled antibody bound to the cell was confirmed by flow cytometry.

[3] = molecular target: T3, IL-3Rα/GM-CSFRα chimeric protein, …; test: as above
[4] = molecular target: T4, IL-3Rα/GM-CSFRα chimeric protein, …; test: as above
[5] = molecular target: T5, IL-3Rα/GM-CSFRα chimeric protein, C …; test: as above
Method: as §1, §2

| Kd [1] [nM] | binding result [2] | binding result [3] | binding result [4] | binding result [5] | Binder |
| --- | --- | --- | --- | --- | --- |
| 1.88 |  |  |  |  | chimeric 7G3 antibody (mouse 7G3 variable regions, human IgG1 constant region) (antibody, V domains shown, also called 7G3 (Chimeric antibody)) VH: EVQLQQSGPELVKPGASVKMSCKASGYTFTDYYMKWVKQSHGKSLEWIGDIIPSNGATFYNQKFKGKATLTVDRSSSTAYMHLNSLTSEDSAVYYCTRSHLLRASWFAYWGQGTLVTVSA VL: DFVMTQSPSSLTVTAGEKVTMSCKSSQSLLNSGNQKNYLTWYLQKPGQPPKLLIYWASTRESGVPDRFTGSGSGTDFTLTISSVQAEDLAVYYCQNDYSYPYTFGGGTKLEIK |
| 1.43 |  |  |  |  | Old17 anti-human IL-3Rα human antibody (antibody, human IgG1, V domains shown, Human antibody; recombinant form in N5KG1-Val Lark vector (human IgG1, kappa)) VH: QVQLVQSGAEVKKPGSSVKVSCKTSGGTFSNFAISWVRQAPGQGLEWMGGIIPIFGSTNYAQKFQGRVTINADESTSTAYMELSSLRSEDTAVYYCAGGDKYGPYYFHYWGQGTLVTVSS VL: DIQMTQSPSSLSASVGDRVTITCRASQGISSWLAWYQQKPEKAPKSLIYAASSLQSGVPSRFSGSGSGTDFTLTISSLQPEDFATYYCQQYNSYPYTFGQGTKLEIK |
| 0.798 | no binding (tested: 1 µg/ml) | no binding (tested: 1 µg/ml) | no binding (tested: 1 µg/ml) |  | New102 anti-human IL-3Rα human antibody (antibody, human IgG1, V domains shown, Human antibody; recombinant form in N5KG1-Val Lark vector (human IgG1, kappa)) VH: QVQLVQSGAEVKKPGSSVKVSCMASGGTVSSYAISWVRQAPGQGLEWMGEIIPIFGIVNYAQKFQGRVTITADESTNTAYMELSSLRSEDTAIYYCARETAVAGILGYWGQGTLVTVSS VL: DIQMTQSPSSLSASVGDRVTITCRASQGISSWLAWYQQKPEKAPKSLIYAASSLQSGVPSRFSGSGSGTDFTLTISSLQPEDFATYYCQQYNSYPYTFGQGTKLEIK |
|  | no binding (tested: 1 µg/ml) |  |  |  | Old4 anti-human IL-3Rα human antibody (antibody, human IgG1, V domains shown, Human antibody from KM mouse hybridoma; recombinant form made in N5KG1-Val Lark vector (human IgG1, kappa) in HEK293F) VH: QVQLLQSGAEVKKPGSSVKVSCKASGGTFSTYAISWVRQAPGQGLEWMGGIIPIFGIVNYAQKFQGRVTITADESTSTAYMELSSLRSEDTAVYYCARGGGSGPDVLDIWGQGTMVTVSS VL: VIWMTQSPSLLSASTGDRVTISCRMSQGIRSYLAWYQQKPGKAPELLIYAASTLQSGVPSRFSGSGSGTDFTLTISSLQSEDFATYYCQQYYSFPYTFGQGTKLEIK |
|  | no binding (tested: 1 µg/ml) |  |  |  | Old5 anti-human IL-3Rα human antibody (antibody, human IgG1, V domains shown, Human antibody; recombinant form in N5KG1-Val Lark vector (human IgG1, kappa)) VH: QVQLVQSGAEVKKPGSSVKVSCKASGGTFSTYAISWVRQAPGQGLEWMGGLIPIFDIENYAQKFQGRVTITADESTSTVYMELSSLRSEDTAMYYCARGGGSGPDVLDIWGQGTMVTVSS VL: VIWMTQSPSLLSASTGDRVTISCRMSQGIRSYLAWYQQKPGKAPELLIYAASTLQSGVPSRFSGSGSGTDFTLTISSLQSEDFATYYCQQYYSFPYTFGQGTKLEIK |
| 1.26 | no binding (tested: 1 µg/ml) |  |  | no binding (tested: 1 µg/ml) | Old6 anti-human IL-3Rα human antibody (antibody, human IgG1, V domains shown, Human antibody) VH: EVQLVESGGGLVKPGGSLRLSCAASGFTFSSHNMNWVRQAPGKGLEWVSSISSSSSYIYYADSVKGRFTISRDNAKNSLYLQMNSLRAEDTAVYYCAREDWGYFDYWGQGTLVTVSS VL: AIQLTQSPSSLSASVGDRVTITCRASQGISSDLAWYQQKPGKAPKLLIYDASSLESGVPSRFSGSGSGTDFTLTISSLQPEDFATYYCQQFNSYPFTFGPGTKVDIK |
